{"source": "patent US7910100B2", "about": "“Antibodies directed to the mammalian EAG1 ion channel protein” (Max-Planck-Gesellschaft zur Forderung der Wissen, priority 2004, dated 2011)", "target": "T1, endogenous Eag1 antigen in MCF7 breast cancer and IPC-298 melanoma cells (Homo sapiens, UniProt O95259)", "T1 construct": "endogenous in cells; host or cells: MCF7 breast cancer cells, IPC-298 melanoma cells", "T1 sequence (O95259 1-989)": "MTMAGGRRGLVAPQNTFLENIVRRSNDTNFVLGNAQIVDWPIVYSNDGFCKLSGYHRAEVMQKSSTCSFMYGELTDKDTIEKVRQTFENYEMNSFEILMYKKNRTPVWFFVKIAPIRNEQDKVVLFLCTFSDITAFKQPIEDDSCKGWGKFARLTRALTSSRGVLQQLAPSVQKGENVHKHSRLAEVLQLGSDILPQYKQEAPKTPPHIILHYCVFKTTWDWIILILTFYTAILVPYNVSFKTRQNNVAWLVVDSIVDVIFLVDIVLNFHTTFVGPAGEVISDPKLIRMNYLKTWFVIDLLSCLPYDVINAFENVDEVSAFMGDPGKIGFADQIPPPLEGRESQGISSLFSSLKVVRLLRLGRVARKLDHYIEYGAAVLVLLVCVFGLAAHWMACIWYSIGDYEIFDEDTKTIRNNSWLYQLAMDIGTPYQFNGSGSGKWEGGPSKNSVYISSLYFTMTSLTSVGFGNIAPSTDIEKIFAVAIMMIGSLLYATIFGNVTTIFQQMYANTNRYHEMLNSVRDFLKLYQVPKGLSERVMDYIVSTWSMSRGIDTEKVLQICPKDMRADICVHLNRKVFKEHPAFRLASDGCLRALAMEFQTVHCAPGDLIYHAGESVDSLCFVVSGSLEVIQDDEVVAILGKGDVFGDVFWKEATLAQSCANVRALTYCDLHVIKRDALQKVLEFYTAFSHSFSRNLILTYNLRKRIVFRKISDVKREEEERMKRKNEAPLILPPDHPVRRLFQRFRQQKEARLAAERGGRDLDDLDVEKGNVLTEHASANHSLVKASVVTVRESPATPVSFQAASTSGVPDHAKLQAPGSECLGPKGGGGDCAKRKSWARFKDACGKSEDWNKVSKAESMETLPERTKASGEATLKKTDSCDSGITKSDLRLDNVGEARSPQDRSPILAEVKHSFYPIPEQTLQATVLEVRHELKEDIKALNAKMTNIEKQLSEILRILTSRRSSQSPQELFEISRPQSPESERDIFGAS", "assay": "Immunofluorescence detection of Eag1 antigen in human tumor cells", "format": "cell-based", "conditions": "2 μg/ml antibody", "protocol": "For detection of Eag1 antigen in human tumor cells an Immunofluorescence staining protocol was established. Glass-Chamber slides (Falcon) were pre-coated with 300 μl medium containing 10% FCS at 37° C. for 30 min. 40 000 MCF7 breast cancer cells/well and 40 000 IPC-298 melanoma cells/well were seeded on pre-coated glass chamber slides and cultured at 37° C. in 5% CO2 for 24 h. After removing the chambers, slides were washed with PBS and cells were fixed with 4% Paraformaldehyd (in PBS adjusted to pH 7.5 with 1 M NaOH) at 25° C. for 10 min. Slides were air dried and re-hydrated with PBS for 3 min (3×). Cells were permeabilized with 0.5% Triton-X 100 in PBS for 10 min at 25° C., slides were washed for 3 min in PBS (3×) and each well was blocked with 100 μl blocking buffer (5% FCS, 2.5% BSA in PBS) at 25° C. for 1 hours. 2 μg/ml anti-EAG1 antibody ImAb 4 diluted in 40 μl blocking buffer/well was incubated for 1 h at 25° C., washed 3× with PBS and 50 μl Alexa 546 goat anti-mouse IgG (Molecular Probes; diluted 1:200 in dilution buffer) was incubated as detection antibody for 1 h at 25° C. Slides were washed with PBS (3×), 50 μl DAPI (Roche; diluted 1:1000 in PBS) was added to each well and incubated at 25° C. for 5 min. […]\nStaining of the anti-EAG1 antigen with ImAb 4 was analysed using a Fluorescence microscope at 573 nm.", "data": [{"molecule": "ImAb4: mouse monoclonal anti-Eag1 antibody, IgG2b kappa; light chain SEQ ID NO: 2, heavy chain SEQ ID NO: 4 (antibody, listed as Mus musculus) heavy: MRVLILLWLFTAFPGILSDVQLQESGPGLVKPSQSLSLTCTVTGYSITSDYAWNWIRQFPGNKLEWMGYISYSGSTIYNPSLKSRISITRDTSKNQFFLQLNSVTTEDTATYYCARFGNYGNTLNYWGQGTSVTVSSAKTTPPSVYPLAPGCGDTTGSSVTLGCLVKGYFPESVTVTWNSGSLSSSVHTFPALLQSGLYTMSSSVTVPSSTWPSQTVTCSVAHPASSTTVDKKLEPSGPISTINPCPPCKECHKCPAPNLEGGPSVFIFPPNIKDVLMISLTPKVTCVVVDVSEDDPDVQISWFVNNVEVHTAQTQTHREDYNSTIRVVSTLPIQHQDWMSGKEFKCKVNNKDLPSPIERTISKIKGLVRAPQVYILPPPAEQLSRKDVSLTCLVVGFNPGDISVEWTSNGHTEENYKDTAPVLDSDGSYFIYSKLNMKTSKWEKTDSFSCNVRHEGLKNYYLKKTISRSPGK light: MKLPVRLLVLMFWIPASSSDVVMTQTPLSLPVSLGDQASISCRSSQSLVHSNGNTYLHWYLQKPGQSPKLLIYKVSNRFSGVPDRFSGSGSGTDFTLKISRVEAEDLGVYFCSQSTHVPPTFGGGTKLEIKRADAAPTVSIFPPSSEQLTSGGASVVCFLNNFYPKDINVKWKIDGSERQNGVLNSWTDQDSKDSTYSMSSTLTLTKDEYERHNSYTCEATHKTSTSPIVKSFNRNEC", "values": [{"measurement": "preferential binding by cell stage", "result": "preferentially binds to dividing human cancer cells"}, {"measurement": "binding to endogenous Eag1 antigen", "setting": "fixed permeabilized cells", "result": "binds to endogenous Eag1 antigen in human cancer cells"}]}]}
